From patent publication US20260191981A1 (ARROWHEAD PHARMACEUTICALS, published 2026)

How the values were obtained:
[1] = target: T1, biotinylated hTfR1 (Acro Bio p/n TFR-H82E5) (human, UniProt P02786 89-760, biotinylated; site not stated); assay: BLI, Octet RH16, biotinylated TfR1 on streptavidin sensor; Fab-siRNA conjugate
T1 construct: Bought reagent of the BLI assay
Procedure: Samples were analyzed via Bio-Layer Interferometry (BLI) to determine kinetics against human transferrin receptor 1 (hTfR1). Briefly, an Octet RH16 (Sartorius) was used for BLI measurements using streptavidin biosensors (Sartorius p/n 18-5019) to irreversibly immobilize biotinylated hTfR1 (Acro Bio p/n TFR-H82E5). […] Sample diluent was prepared in house and is composed of 10 mM PBS pH 7.4 (150 mM NaCl), 0.01% BSA, 0.002% Tween 20, and 0.01% kathon. A 96-well plate was used for analysis, filled with required samples solutions and a row of 10 μg/mL hTfR1 for loading of the streptavidin sensors. For each sample, one well was reserved for a reference sensor control (non-specific binding evaluation with no hTfR1 on surface in highest sample concentration) and a sample reference (buffer only on a hTfR1 loaded sample). One well was also reserved for a second replicate of one of the five concentrations to evaluate sensor and method variability. Eight channels were used for the highest sensitivity offered by the Octet RH16. For each assay performed, the steps were as follows: a sensor check for baseline evaluation of sensor alone in buffer was performed for 30 seconds, followed by loading of the cTfR1 for 60 seconds, then a baseline check for 90 seconds to verify stability of cTfR1 immobilized to sensor surface, then sample association for 180 seconds, and finally sample dissociation for 300 seconds. A shake speed of 1000 was used for all steps. Sample results are analyzed in Octet Analysis software.

[2] = target: T2, biotinylated cTfR1 (Acro Bio p/n TFR-C8249) (cynomolgus monkey, UniProt H9EXL1 89-760 (rhesus entry), biotinylated; site not stated); assay: as above
T2 construct: Bought reagent of the BLI assay
Procedure: Samples were analyzed via Bio-Layer Interferometry (BLI) to determine kinetics against cynomolgus monkey transferrin receptor 1 (cTfR1). Briefly, an Octet RH16 (Sartorius) was used for BLI measurements using streptavidin biosensors (Sartorius p/n 18-5019) to irreversibly immobilize biotinylated cTfR1 (Acro Bio p/n TFR-C8249). […] Sample diluent was prepared in house and is composed of 10 mM PBS pH 7.4 (150 mM NaCl), 0.01% BSA, 0.002% Tween 20, and 0.01% kathon. A 96-well plate was used for analysis, filled with required samples solutions and a row of 10 μg/mL cTfR1 for loading of the streptavidin sensors. For each sample, one well was reserved for a reference sensor control (non-specific binding evaluation with no cTfR1 on surface in highest sample concentration) and a sample reference (buffer only on a cTfR1 loaded sample). One well was also reserved for a second replicate of one of the five concentrations to evaluate sensor and method variability. Eight channels were used for the highest sensitivity offered by the Octet RH16. For each assay performed, the steps were as follows: a sensor check for baseline evaluation of sensor alone in buffer was performed for 30 seconds, followed by loading of the cTfR1 for 60 seconds, then a baseline check for 90 seconds to verify stability of cTfR1 immobilized to sensor surface, then sample association for 180 seconds, and finally sample dissociation for 300 seconds. A shake speed of 1000 was used for all steps. Sample results were analyzed in Octet Analysis software.

T2 sequence (chain, as listed by the source): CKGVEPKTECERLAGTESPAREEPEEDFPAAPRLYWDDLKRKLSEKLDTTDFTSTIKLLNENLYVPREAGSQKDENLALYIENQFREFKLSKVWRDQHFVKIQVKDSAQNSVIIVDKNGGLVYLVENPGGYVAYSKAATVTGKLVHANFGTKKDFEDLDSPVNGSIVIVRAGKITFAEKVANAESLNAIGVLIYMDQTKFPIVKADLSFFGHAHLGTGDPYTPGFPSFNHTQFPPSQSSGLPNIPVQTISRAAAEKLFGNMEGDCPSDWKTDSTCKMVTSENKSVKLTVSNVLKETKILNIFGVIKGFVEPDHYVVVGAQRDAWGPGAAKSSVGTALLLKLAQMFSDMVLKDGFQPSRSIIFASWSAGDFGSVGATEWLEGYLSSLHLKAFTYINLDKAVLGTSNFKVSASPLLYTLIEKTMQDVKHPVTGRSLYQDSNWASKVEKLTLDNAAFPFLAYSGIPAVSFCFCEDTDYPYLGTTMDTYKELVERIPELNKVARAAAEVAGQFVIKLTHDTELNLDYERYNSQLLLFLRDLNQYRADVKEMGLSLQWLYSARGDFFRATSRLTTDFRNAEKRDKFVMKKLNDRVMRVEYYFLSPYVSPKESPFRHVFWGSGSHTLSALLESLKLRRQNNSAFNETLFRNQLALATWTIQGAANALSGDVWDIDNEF
T1 sequence (P02786 89-760 limits assumed): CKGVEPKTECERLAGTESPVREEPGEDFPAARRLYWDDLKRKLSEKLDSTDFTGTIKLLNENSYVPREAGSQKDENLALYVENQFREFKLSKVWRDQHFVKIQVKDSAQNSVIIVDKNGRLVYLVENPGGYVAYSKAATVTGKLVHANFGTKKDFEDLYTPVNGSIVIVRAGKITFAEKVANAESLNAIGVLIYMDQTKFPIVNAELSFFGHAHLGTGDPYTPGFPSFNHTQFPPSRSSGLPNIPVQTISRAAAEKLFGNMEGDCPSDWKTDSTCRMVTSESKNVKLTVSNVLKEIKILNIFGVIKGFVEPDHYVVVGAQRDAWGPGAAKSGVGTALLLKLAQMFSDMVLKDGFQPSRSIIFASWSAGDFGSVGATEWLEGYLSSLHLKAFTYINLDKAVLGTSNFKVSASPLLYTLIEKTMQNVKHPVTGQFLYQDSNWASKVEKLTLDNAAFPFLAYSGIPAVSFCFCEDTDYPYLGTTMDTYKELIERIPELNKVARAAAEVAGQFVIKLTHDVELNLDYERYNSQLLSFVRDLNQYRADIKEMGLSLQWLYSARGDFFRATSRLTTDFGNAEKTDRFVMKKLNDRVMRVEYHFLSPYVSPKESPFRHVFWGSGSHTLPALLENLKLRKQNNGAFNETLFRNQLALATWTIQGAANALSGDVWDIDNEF

| Binder | Kd [1] [nM] | koff [1] [s⁻¹] | kon [1] [M⁻¹ s⁻¹] | Kd [2] [nM] | koff [2] [s⁻¹] | kon [2] [M⁻¹ s⁻¹] |
| --- | --- | --- | --- | --- | --- | --- |
| Fab0061-siRNA conjugate (Fab, V domains shown, siRNA-linker on a reduced cysteine; chain and residue not stated, also called Fab0061 (BLI conjugate columns)) VH: EVQLVESGGGLVQPGGSLRLSCATSGYTFTSYWMHWVRQAPGKGLEWVAEINPTNGRVNYIEKFKSRITLSVDKSKSTVYLQMNSLRAEDTAVYYCARGTRAYHYWGQGTLVTVSS VL: DIQLTQSPSSLSASVGDRVTITCRASDGLYSNLAWYQQKPGKAPKLLIYDATKLASGVPSRFSGSGSGTDYTLTISSLQPEDFATYYCQHFWGTPLTFGQGTKVEIKR | 1.9 | 0.000527 | 278000 | 6.85 | 0.0017 | 248000 |
| Fab0062-siRNA conjugate (Fab, V domains shown, siRNA-linker on a reduced cysteine; chain and residue not stated, also called Fab0062 (BLI conjugate columns)) VH: EVQLVESGGGLVQPGGSLRLSCATSGYTFTSYWMHWVRQAPGKGLEWVAEINPTNGRVNYIEKFKSRITLSVDKSKSTVYLQMNSLRAEDTAVYYCARGTRAYHYWGQGTLVTVSS VL: DIQLTQSPSSLSASVGDRVTITCRASDGLYSNLAWYQQKPGKAPKLLIYDAFNLASGVPSRFSGSGSGTDYTLTISSLQPEDFATYYCQHFWGTPLTFGQGTKVEIKR | 4.47 | 0.00123 | 275000 | 11 | 0.00263 | 238000 |
| Fab0060-siRNA conjugate (Fab, V domains shown, siRNA-linker on a reduced cysteine; chain and residue not stated, also called Fab0060 (BLI conjugate columns)) VH: EVQLVESGGGLVQPGGSLRLSCATSGYTFTSYWVHWVRQAPGKGLEWVAEINPTNGRTNYIEKFKSRITLSVDKSKSTVYLQMNSLRAEDTAVYYCARGTRAYHYWGQGTLVTVSS VL: DIQLTQSPSSLSASVGDRVTITCRASDGLYSNLAWYQQKPGKAPKLLIYDATKLASGVPSRFSGSGSGTDYTLTISSLQPEDFATYYCQHFWGTPLTFGQGTKVEIKR | 3.65 | 0.00109 | 298000 | 9.11 | 0.00252 | 276000 |
| Fab0065-siRNA conjugate (Fab, V domains shown, siRNA-linker on a reduced cysteine; chain and residue not stated, also called Fab0065 (BLI conjugate columns)) VH: EVQLVESGGGLVQPGGSLRLSCATSGYTFTSYWVHWVRQAPGKGLEWVAEINPTNGRSNYIEKFKSRITLSVDKSKSTVYLQMNSLRAEDTAVYYCARGTRAYHYWGQGTLVTVSS VL: DIQLTQSPSSLSASVGDRVTITCRASDNLYRNLAWYQQKPGKAPKLLIYDATKLASGVPSRFSGSGSGTDYTLTISSLQPEDFATYYCQHFWGTPLTFGQGTKVEIKR | 2.64 | 0.00082 | 310000 | 5.63 | 0.0013 | 231000 |
| Fab0064-siRNA conjugate (Fab, V domains shown, siRNA-linker on a reduced cysteine; chain and residue not stated, also called Fab0064 (BLI conjugate columns)) VH: EVQLVESGGGLVQPGGSLRLSCATSGYTFTSYWMHWVRQAPGKGLEWVAEINPTNGRVNYIEKFKSRITLSVDKSKSTVYLQMNSLRAEDTAVYYCARGTRAYHYWGQGTLVTVSS VL: DIQLTQSPSSLSASVGDRVTITCRASDGLYSNLAWYQQKPGKAPKLLIYDAKNLASGVPSRFSGSGSGTDYTLTISSLQPEDFATYYCQHFWGTPLTFGQGTKVEIKR | 1.44 | 0.000393 | 273000 | 5.96 | 0.0019 | 319000 |
| Fab0063-siRNA conjugate (Fab, V domains shown, siRNA-linker on a reduced cysteine; chain and residue not stated, also called Fab0063 (BLI conjugate columns)) VH: EVQLVESGGGLVQPGGSLRLSCATSGYTFTSYWMHWVRQAPGKGLEWVAEINPTNGRVNYIEKFKSRITLSVDKSKSTVYLQMNSLRAEDTAVYYCARGTRAYHYWGQGTLVTVSS VL: DIQLTQSPSSLSASVGDRVTITCRASDGLYSNLAWYQQKPGKAPKLLIYDATRLASGVPSRFSGSGSGTDYTLTISSLQPEDFATYYCQHFWGTPLTFGQGTKVEIKR | 2.72 | 0.000775 | 285000 | 8.37 | 0.0022 | 263000 |

Other lines, results leading:

| Kd [1] [nM] | koff [1] [s⁻¹] | kon [1] [M⁻¹ s⁻¹] | Kd [2] [nM] | koff [2] [s⁻¹] | kon [2] [M⁻¹ s⁻¹] | Binder |
| --- | --- | --- | --- | --- | --- | --- |
| 5.45 | 0.00164 | 301000 | 9.58 | 0.00245 | 256000 | Fab0069-siRNA conjugate (Fab, V domains shown, siRNA-linker on a reduced cysteine; chain and residue not stated, also called Fab0069 (BLI conjugate columns)) VH: EVQLVESGGGLVQPGGSLRLSCATSGYTFTSYWVHWVRQAPGKGLEWVAEINPTNGRSNYIEKFKSRITLSVDKSKSTVYLQMNSLRAEDTAVYYCARGTRAYHYWGQGTLVTVSS VL: DIQLTQSPSSLSASVGDRVTITCRASDGLYSNLAWYQQKPGKAPKLLIYDATKLASGVPSRFSGSGSGTDYTLTISSLQPEDFATYYCQHFWGTPLTFGQGTKVEIKR |
| 0.623 | 0.000167 | 268000 | 5.02 | 0.0019 | 378000 | Fab0067-siRNA conjugate (Fab, V domains shown, siRNA-linker on a reduced cysteine; chain and residue not stated, also called Fab0067 (BLI conjugate columns)) VH: EVQLVESGGGLVQPGGSLRLSCATSGYTFTSYWVHWVRQAPGKGLEWVAEINPTNGRTNYIEKFKSRITLSVDKSKSTVYLQMNSLRAEDTAVYYCARGTRAYHYWGQGTLVTVSS VL: DIQLTQSPSSLSASVGDRVTITCRASDNLYRNLAWYQQKPGKAPKLLIYDATKLASGVPSRFSGSGSGTDYTLTISSLQPEDFATYYCQHFWGTPLTFGQGTKVEIKR |
| 2.67 | 0.000716 | 268000 | 18.1 | 0.00429 | 234000 | Fab0071-siRNA conjugate (Fab, V domains shown, siRNA-linker on a reduced cysteine; chain and residue not stated, also called Fab0071 (BLI conjugate columns)) VH: EVQLVESGGGLVQPGGSLRLSCATSGYTFNSYWMHWVRQAPGKGLEWVAEINPTNGRTNYIEKFKSRITLSVDKSKSTVYLQMNSLRAEDTAVYYCARGTRAYHYWGQGTLVTVSS VL: DIQLTQSPSSLSASVGDRVTITCRASDGLYSNLAWYQQKPGKAPKLLIYDARNLASGVPSRFSGSGSGTDYTLTISSLQPEDFATYYCQHFWGTPLTFGQGTKVEIKR |
| 0.898 | 0.000262 | 292000 | 10.8 | 0.00398 | 368000 | Fab0072-siRNA conjugate (Fab, V domains shown, siRNA-linker on a reduced cysteine; chain and residue not stated, also called Fab0072 (BLI conjugate columns)) VH: EVQLVESGGGLVQPGGSLRLSCATSGYTFNSYWMHWVRQAPGKGLEWVAEINPTNGRFNYIEKFKSRITLSVDKSKSTVYLQMNSLRAEDTAVYYCARGTRAYHYWGQGTLVTVSS VL: DIQLTQSPSSLSASVGDRVTITCRASDNLYRNLAWYQQKPGKAPKLLIYDARNLASGVPSRFSGSGSGTDYTLTISSLQPEDFATYYCQHFWGTPLTFGQGTKVEIKR |
| 1.81 | 0.000469 | 259000 | 10 | 0.00335 | 334000 | Fab0066-siRNA conjugate (Fab, V domains shown, siRNA-linker on a reduced cysteine; chain and residue not stated, also called Fab0066 (BLI conjugate columns)) VH: EVQLVESGGGLVQPGGSLRLSCATSGYTFTSYWVHWVRQAPGKGLEWVAEINPTNGRVNYIEKFKSRITLSVDKSKSTVYLQMNSLRAEDTAVYYCARGTRAYHYWGQGTLVTVSS VL: DIQLTQSPSSLSASVGDRVTITCRASDGLYSNLAWYQQKPGKAPKLLIYDAFNLASGVPSRFSGSGSGTDYTLTISSLQPEDFATYYCQHFWGTPLTFGQGTKVEIKR |
| 3.71 | 0.000974 | 263000 | 16.9 | 0.00413 | 244000 | Fab0070-siRNA conjugate (Fab, V domains shown, siRNA-linker on a reduced cysteine; chain and residue not stated, also called Fab0070 (BLI conjugate columns)) VH: EVQLVESGGGLVQPGGSLRLSCATSGFTFTSYWMHWVRQAPGKGLEWVAEINPTNGRTNYIEKFKSRITLSVDKSKSTVYLQMNSLRAEDTAVYYCARGTRAYHYWGQGTLVTVSS VL: DIQLTQSPSSLSASVGDRVTITCRASDKLYSNLAWYQQKPGKAPKLLIYDATLLASGVPSRFSGSGSGTDYTLTISSLQPEDFATYYCQHFWGTPLTFGQGTKVEIKR |
| 1.69 | 0.000432 | 256000 | 8.89 | 0.00221 | 249000 | Fab0068-siRNA conjugate (Fab, V domains shown, siRNA-linker on a reduced cysteine; chain and residue not stated, also called Fab0068 (BLI conjugate columns)) VH: EVQLVESGGGLVQPGGSLRLSCATSGYTFTSYWVHWVRQAPGKGLEWVAEINPTNGRVNYIEKFKSRITLSVDKSKSTVYLQMNSLRAEDTAVYYCARGTRAYHYWGQGTLVTVSS VL: DIQLTQSPSSLSASVGDRVTITCRASDGLYSNLAWYQQKPGKAPKLLIYDATKLASGVPSRFSGSGSGTDYTLTISSLQPEDFATYYCQHFWGTPLTFGQGTKVEIKR |
| 2.1 | 0.000615 | 292000 | 9.23 | 0.00321 | 348000 | Fab0073-siRNA conjugate (Fab, V domains shown, siRNA-linker on a reduced cysteine; chain and residue not stated, also called Fab0073 (BLI conjugate columns)) VH: EVQLVESGGGLVQPGGSLRLSCATSGYTFKSYWMHWVRQAPGKGLEWVAEINPTNGRTNYIEKFKSRITLSVDKSKSTVYLQMNSLRAEDTAVYYCARGTRAYHYWGQGTLVTVSS VL: DIQLTQSPSSLSASVGDRVTITCRASDNLYRNLAWYQQKPGKAPKLLIYDATKLASGVPSRFSGSGSGTDYTLTISSLQPEDFATYYCQHFWGTPLTFGQGTKVEIKR |
